A value given as a limit tells only on which side of the number the result lay.

The chains are these.
B1: engineered monoclonal antibody 10-40 (antibody, V domains shown)
VH: QLQLQESGPGLVKPSETLSLTCTVSGGSISSSNFYWGWIRQPPGKGLEWIASITYSGRTFYNPSLKSRVAISVDTSKNQFSLKLSSVTAADTAVYYCARTFPSYYDRSGYHYLNYGMDVWGQGTTVTVSS
VL: NFMLTQPHSMSESPGKTVTISCTRSSGSIASNYVQWYQQRPGSSPTTVIYEDNQRPSGVPDRFSGSIDSSSNSASLTISGLKTEDEADYYCQSYDSSSWVFGGGTKLTVL
B2: engineered monoclonal antibody 10-28 (antibody, V domains shown)
VH: QVQLVESGGGVVQPGRSLRLSCAASGFTFSSYDMHWVRQAPGKGLEWVAVISYDGSSKFYAESVKGRFTISRDNSKNTLYLQMNSLRAEETAVYYCVKDGEQLVPLFDYWGQGTLVTVSS
VL: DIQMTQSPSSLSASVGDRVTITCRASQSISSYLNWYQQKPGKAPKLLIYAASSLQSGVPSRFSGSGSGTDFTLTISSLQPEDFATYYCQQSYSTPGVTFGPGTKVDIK
B3: engineered monoclonal antibody 11-11 (antibody, V domains shown)
VH: QVQLQESGPGLVKPSQTLSLTCTVSGGSISSGGYYWSWIRQHPGKGLEWIGYIYYSGSTYYNPSLKSRVTISVDTSKNQFSLKVSSVTAADTAVYYCASSNYYDGSGYNLLESYGMDVWGQGTSVTVSS
VL: QSVLTQPPSVSGAPGQRVTISCTGSSSNIGAGYDVHWYQQLPGTAPKLLIYGNSNRPSGVPDRFSGSRSGTSASLAITGLQAEDEADYYCQSYDSSLSGSWVFGGGTKVTVL
B4: 10-40 (antibody, V domains shown)
VH: B1 VH
VL: B1 VL
B5: 10-28 (antibody, V domains shown)
VH: B2 VH
VL: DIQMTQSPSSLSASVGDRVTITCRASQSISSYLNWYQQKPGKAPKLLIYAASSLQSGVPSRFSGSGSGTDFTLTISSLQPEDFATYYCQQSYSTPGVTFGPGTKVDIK
B6: 11-11 (antibody, V domains shown)
VH: B3 VH
VL: B3 VL

One assay concerns the target SARS-COV spike trimer (SARS-CoV, UniProt P59594 14-1190). Briefly: SPR. For orientation: SPR reads the build-up and loss of mass on a sensor chip optically.
In general, Kd refers to the free concentration of one partner at which half of the binding sites on the other are occupied at equilibrium, for simple one-to-one binding. Molecule B1 came in with a dissociation constant (Kd) of 2.21 pM.

B2: binding was put at a Kd of 3.69 pM.

With B3, binding was put at a Kd of 4.51 pM.

Another assay deals with WIV1. Briefly: ELISA.
As a reminder, the EC50 is the concentration giving half of the maximal effect. Lower therefore signals greater potency. B4 showed an EC50 of 4 ng/mL.

As to B5, the EC50 was determined as 3 ng/mL.

B6 had an EC50 of 6 ng/mL.

The target in another assay is BM-4831. Briefly: ELISA.
B4 returned an EC50 of 3 ng/mL.

As to B5, the EC50 amounted to 2 ng/mL.

B6 showed an EC50 of 1500 ng/mL.

The next assay deals with SHC014. Briefly: ELISA. On the technique in general: In an ELISA, binding on a coated surface is turned into a signal by an enzyme label.
B4 gave an EC50 of 5 ng/mL.

Regarding B5, the EC50 came out at 2 ng/mL.

Regarding B6, it took 6 ng/mL to reach a half-maximal effect (EC50).

The target of another assay is BtKY72. Briefly: ELISA.
In turn, B4 returned an EC50 of 4 ng/mL.

For B5, the 50% effective concentration (EC50) was found to be 4 ng/mL.

As to B6, the EC50 is 7 ng/mL.

For another assay, the target named is RmYN02. Briefly: ELISA.
Regarding B4, a half-maximal response (EC50) required 10 ng/mL.

Consider B5, for which the EC50 is 6 ng/mL.

For B6, the EC50 was > 10000 ng/mL.

In the next assay the target is RaTG13. Briefly: ELISA.
For the molecule B4, the EC50 came out at 3 ng/mL.

B5: the EC50 worked out at 2 ng/mL.

As for B6, the concentration for a half-maximal effect (EC50) is > 10000 ng/mL.

The target in another assay is Rf1. Briefly: ELISA.
As to B4, the EC50 came to 4 ng/mL.

Molecule B5 registered an EC50 of 4 ng/mL.

Turning to B6, the EC50 was > 10000 ng/mL.

The target of a further assay is Yunnan2011. Briefly: ELISA.
Molecule B4 returned an EC50 of 37 ng/mL.

On to B5, for which the response was half-maximal at 9 ng/mL (EC50).

On to B6, for which the EC50 is > 10000 ng/mL.

The target in a further assay is Rs4081. Briefly: ELISA.
B4 displayed an EC50 of 9 ng/mL.

As for B5, the response was half-maximal at 7 ng/mL (EC50).

For the molecule B6, the EC50 is > 10000 ng/mL.

A further assay concerns the target SARS-CoV. Briefly: ELISA.
B4 registered an EC50 of 8 ng/mL.

B5 registered an EC50 of 5 ng/mL.

For B6, it took 19 ng/mL to reach a half-maximal effect (EC50).

The target of a further assay is GX-Pangolin. Briefly: ELISA.
For the molecule B4, it took 4 ng/mL to reach a half-maximal effect (EC50).

B5 returned an EC50 of 4 ng/mL.

As for B6, the EC50 is > 10000 ng/mL.

The target in the next assay is SARS-CoV-2 Spike. Briefly: SPR.
In the case of B4, binding was characterised by a dissociation constant (Kd) of 4.52 pM.

B5 showed a Kd of 0.782 pM.

B6 had a Kd of 1540 pM.

The values above are taken from US20240343781A1 (published 2024).
